Source: publication PMC3577987 (Journal of molecular biology, 2012)

Legend:
pulsed dipolar ESR = target: the molecule itself; test: pulsed dipolar ESR
SAXS = target: the molecule itself; test: SAXS
crystal structure = target: the molecule itself; test: crystal structure

Protein | binding result (SAXS) | also measured
Aer2 1–402 S183C, MTSSL spin-labeled (domain or fragment, MTSSL nitroxide spin label on C183) MGLFNAHAVAQQRADRIATLLQSFADGQLDTAVGEAPAPGYERLYDSLRALQRQLREQRAELQQVESLEAGLAEMSRQHEAGWIDQTIPAERLEGRAARIAKGVNELVAAHIAVKMKVVSVVTAYGQGNFEPLMDRLPGKKAQITEAIDGVRERLRGAAEATSAQLATAAYNARIKSALDNVCANVMIADNDLNIIYMNRTVSEMLGRAEADIRKQLPNFDAGRLMGANIDVFHKNPAHQRHLLANLTGVHKAELNLGGRRFSLDVVPVFNDANERLGSAVQWTDRTEEHRAEQEVSQLVQAAAAGDFSKRVEEAGKEGFFLRLAKDLNSLVDTADRGLRDVSRMLGALAQGDLTQRIEADYQGTFGQLKDFSNDTAQSLSRMLGQIREAADTINTAASEIA | – | binding result (pulsed dipolar ESR): binds
Aer2 1–402 (domain or fragment) MGLFNAHAVAQQRADRIATLLQSFADGQLDTAVGEAPAPGYERLYDSLRALQRQLREQRAELQQVESLEAGLAEMSRQHEAGWIDQTIPAERLEGRAARIAKGVNELVAAHIAVKMKVVSVVTAYGQGNFEPLMDRLPGKKAQITEAIDGVRERLRGAAEATSAQLATAAYNARIKSALDNVSANVMIADNDLNIIYMNRTVSEMLGRAEADIRKQLPNFDAGRLMGANIDVFHKNPAHQRHLLANLTGVHKAELNLGGRRFSLDVVPVFNDANERLGSAVQWTDRTEEHRAEQEVSQLVQAAAAGDFSKRVEEAGKEGFFLRLAKDLNSLVDTADRGLRDVSRMLGALAQGDLTQRIEADYQGTFGQLKDFSNDTAQSLSRMLGQIREAADTINTAASEIA | binds | –
Aer2 1–317 (domain or fragment) MGLFNAHAVAQQRADRIATLLQSFADGQLDTAVGEAPAPGYERLYDSLRALQRQLREQRAELQQVESLEAGLAEMSRQHEAGWIDQTIPAERLEGRAARIAKGVNELVAAHIAVKMKVVSVVTAYGQGNFEPLMDRLPGKKAQITEAIDGVRERLRGAAEATSAQLATAAYNARIKSALDNVSANVMIADNDLNIIYMNRTVSEMLGRAEADIRKQLPNFDAGRLMGANIDVFHKNPAHQRHLLANLTGVHKAELNLGGRRFSLDVVPVFNDANERLGSAVQWTDRTEEHRAEQEVSQLVQAAAAGDFSKRVEEAGK | binds | –
Aer2 173–289 K176A E275A (domain or fragment) ARIASALDNVSANVMIADNDLNIIYMNRTVSEMLGRAEADIRKQLPNFDAGRLMGANIDVFHKNPAHQRHLLANLTGVHKAELNLGGRRFSLDVVPVFNDANARLGSAVQWTDRTEE | – | binding result (crystal structure): binds
